Assay results reported in patent publication US8530168B2, “Fusion protein comprising a Caspase domain and a nuclear hormone receptor binding domain and methods and uses thereof” (Helmholtz Zentrum Munich Deutsches Forschungszentrum fuer …, priority 2007, dated 2013).

B1: myrCasp8-ER(T2): murine Caspase-8 domain with N-terminal myristoylation motif fused to ER(T2) ligand binding domain, SEQ ID NO: 23 (protein)
chain: MGSSKSKPKDPSQRSESRTSDKVYQMKNKPRGYCLIINNHDFSKAREDITQLRKMKDRKGTDCDKEALSKTFKELHFEIVSYDDCTANEIHEILEGYQSADHKNKDCFICCILSHGDKGVVYGTDGKEASIYDLTSYFTGSKCPSLSGKPKIFFIQACQGSNFQKGVPDEAGFEQQNHTLEVDSSSHKNYIPDEADFLLGMATVKNCVSYRDPVNGTWYIQSLCQSLRERCPQGDDILSILTGVNYDVSNKDDRRNKGKQMPQPTFTLRKKLFFPPLEPSAGDMRAANLWPSPLMIKRSKKNSLALSLTADQMVSALLDAEPPILYSEYDPTRPFSEASMMGLLTNLADRELVHMINWAKRVPGFVDLTLHDQVHLLECAWLEILMIGLVWRSMEHPVKLLFAPNLLLDRNQGKCVEGMVEIFDMLLATSSRFRMMNLQGEEFVCLKSIILLNSGVYTFLSSTLKSLEEKDHIHRVLDKITDTLIHLMAKAGLTLQQQHQRLAQLLLILSHIRHMSNKGMEHLYSMKCKNVVPLYDLLLEAADAHRLHAPTSRGGASVEETDQSHLATAGSTSSHSLQKYYITGEAEGFPATA
modifications: N-terminal myristoylation motif; fusion protein myrCasp8-ER(T2)
B2: Casp8-ER(T2): fusion of murine Caspase-8 domain to the ER(T2) ligand binding domain, SEQ ID NO: 20 (protein)
chain: MSESRTSDKVYQMKNKPRGYCLIINNHDFSKAREDITQLRKMKDRKGTDCDKEALSKTFKELHFEIVSYDDCTANEIHEILEGYQSADHKNKDCFICCILSHGDKGVVYGTDGKEASIYDLTSYFTGSKCPSLSGKPKIFFIQACQGSNFQKGVPDEAGFEQQNHTLEVDSSSHKNYIPDEADFLLGMATVKNCVSYRDPVNGTWYIQSLCQSLRERCPQGDDILSILTGVNYDVSNKDDRRNKGKQMPQPTFTLRKKLFFPPLEPSAGDMRAANLWPSPLMIKRSKKNSLALSLTADQMVSALLDAEPPILYSEYDPTRPFSEASMMGLLTNLADRELVHMINWAKRVPGFVDLTLHDQVHLLECAWLEILMIGLVWRSMEHPVKLLFAPNLLLDRNQGKCVEGMVEIFDMLLATSSRFRMMNLQGEEFVCLKSIILLNSGVYTFLSSTLKSLEEKDHIHRVLDKITDTLIHLMAKAGLTLQQQHQRLAQLLLILSHIRHMSNKGMEHLYSMKCKNVVPLYDLLLEAADAHRLHAPTSRGGASVEETDQSHLATAGSTSSHSLQKYYITGEAEGFPATA
modifications: fusion protein Casp8-ER(T2)
B3: Cre-ER(T2): fusion of Cre recombinase to ER(T2) ligand binding domain, negative control, SEQ ID NO: 5 (protein)
chain: MSNLLTVHQNLPALPVDATSDEVRKNLMDMFRDRQAFSEHTWKMLLSVCRSWAAWCKLNNRKWFPAEPEDVRDYLLYLQARGLAVKTIQQHLGQLNMLHRRSGLPRPSDSNAVSLVMRRIRKENVDAGERAKQALAFERTDFDQVRSLMENSDRCQDIRNLAFLGIAYNTLLRIAEIARIRVKDISRTDGGRMLIHIGRTKTLVSTAGVEKALSLGVTKLVERWISVSGVADDPNNYLFCRVRKNGVAAPSATSQLSTRALEGIFEATHRLIYGAKDDSGQRYLAWSGHSARVGAARDMARAGVSIPEIMQAGGWTNVNIVMNYIRNLDSETGAMVRLLEDGDLEPSAGDMRAANLWPSPLMIKRSKKNSLALSLTADQMVSALLDAEPPILYSEYDPTRPFSEASMMGLLTNLADRELVHMINWAKRVPGFVDLTLHDQVHLLECAWLEILMIGLVWRSMEHPVKLLFAPNLLLDRNQGKCVEGMVEIFDMLLATSSRFRMMNLQGEEFVCLKSIILLNSGVYTFLSSTLKSLEEKDHIHRVLDKITDTLIHLMAKAGLTLQQQHQRLAQLLLILSHIRHMSNKGMEHLYSMKCKNVVPLYDLLLEAADAHRLHAPTSRGGASVEETDQSHLATAGSTSSHSLQKYYITGEAEGFPATA
modifications: fusion protein Cre-ER(T2)

Columns and labels:
Pac2 cells = assay: Transient cotransfection with β-galactosidase reporter into Pac2 cells; assay type: cell-based, zebrafish; conditions: 10^−8 M 4-OH-tamoxifen, Cre-ER(T2) as reference, range given jointly for HeLa and Pac2
Experimental: (§1) Results are shown as mean values of triplicate samples with standard deviation. (b) Transient cotransfection of a β-galactosidase reporter with a Cre-ER(T2), myrCasp8-ER(T2), or Casp9-ER(T2) expression plasmid into murine M5/N9 (black columns), human HeLa (grey columns) or zebrafish Pac2 (open columns) cells. 12 h following transfection, cells were cultured for 36 h with 4-OH-tamoxifen at 10^−8 M and the activity of β-galactosidase in cell lysates was determined. Values obtained from transfections of the Cre-ER(T2) vector were defined as reference. Results are shown as mean values of triplicate samples with standard deviation.
PAC2 zebrafish fibroblasts were grown in Leibowitz's L15—with L-Glutamine medium supplemented with 1% Non-essential Amino Acids, 1% Penicillin/Streptomycin and 10% fetal calf serum (all Gibco) at 28° C. 3×10^6 Cells were transiently transfected with the plasmids CMVβ together with CAG-CreER(T2), CAG-myrCasp8ER(T2) or CAG-Casp9ER(T2) (500 ng each) using nanofectin transfection reagent (PAA). 24 hrs after transfection the medium was replaced and conditioned with 10^−8 M 4-OH-tamoxifen. Before lysis, the cells were incubated for another 24 hrs at 28°. […]

MEF5/N9 cells = assay: TUNEL in situ cell death detection assay of MEF5/N9 clones; assay type: cell-based, mouse; conditions: 10^−8 M 4-OH-tamoxifen; for TUNEL result / apoptotic morphology (in words): 3 or 7 hours; for incubation time with 4-OH-tamoxifen at which TUNEL positive cells were detected: fixation at 2, 3, 5 and 7 hours
From the text: TUNEL, or terminal deoxynucleotidyl transferase-mediated dUTP nick end-labeling, is acknowledged as a method of choice in the rapid detection of DNA fragmentation that results from apoptotic signaling cascades (Gavrieli et al., J. Cell Biol., 119(3), 493-501 (1992)). Cleavage of genomic DNA during apoptosis may yield double-stranded, low molecular weight DNA fragments as well as single strand breaks (“nicks”) in high molecular weight DNA. Those DNA strand breaks can be identified by terminal deoxynucleotidyl transferase (TdT), which catalyzes polymerization of labeled nucleotides to free 3′-OH DNA ends in a template-independent manner. To detect 4-OH-tamoxifen induced cell death in MEF5/N9 cells, we applied the In Situ Cell Death Detection Kit, POD by Roche according to the manufacturer's instructions. Incorporated fluorescein is detected by anti-fluorescein antibody, conjugated with horse-radish peroxidase (POD). After substrate reaction, stained cells can be analyzed under light microscopy.
Two days prior to the TUNEL staining, round glass cover slips ([…]) were sterilized with 70% EtOH, dried under laminar flow and coated with Poly-L-lysine at a concentration of 50 μg/ml over night at 37° C., which allows a better attachment of cells on the cover slips. The following day, the cover slips were rinsed 3 times with PBS and dried for 1 hour under laminar flow. 2.5·10^5 cells were seeded onto cover slips in a 6-well plate. On the test day, medium was replaced either by fresh medium or medium supplemented with 10^−8 M 4-OH-tamoxifen. […] After fixation, cells were rinsed three times in PBS, covered with 100% methanol and incubated for 10 min or over night in a freezer and rinsed in PBS. Endogenous peroxidase activity was blocked by immersing cover slips for 10 min in 3% H2O2 in methanol prior to cell permeabilization. Cells were subsequently rinsed with PBS and incubated in permeabilization solution (0.1% Triton X-100 in freshly prepared 0.1% sodium citrate) for 2 min on ice. To generate a positive control, DNA strand breaks were induced by incubating permeabilized cells with 2 U/ml DNase I in 50 mM Tris-HCl, pH 7.5, 10 mM MgCl2, 1 mg/ml BSA for 10 min at room temperature, prior to labeling procedure. Cover slips were rinsed twice with PBS before incubating each sample with 25 μl TUNEL reaction mixture for 60 min at 37° C. in a humidified atmosphere in the dark. To avoid evaporative loss, cover slips were covered with parafilm. For a negative control 25 μl of Label solution without enzyme solution were added. Following labeling, cover slips were rinsed 3 times with PBS for 10 min each. To convert the fluorescence signal to a chromogenic signal, 25 μl of the POD solution were added on each sample which was covered with parafilm and incubated in a humidified chamber for 30 min at 37° C. Subsequently, cover slips were rinsed 3 times with PBS and incubated in freshly prepared 0.05% DAB in 0.1 M Tris-HCl (pH 7.4) supplemented with 0.02% H2O2 for 10-20 min at room temperature. The conversion procedure was controlled under a light microscope. The reaction was stopped with PBS until brown precipitates were well visible inside the cells. To remove DAB, cover slips were rinsed several times in PBS. Optionally, nuclear staining was performed by incubating cover slips for 15 min in 2.5 μg/ml DAPI diluted in PBS. Cover slips were mounted with a water-soluble, non-fluorescing mounting medium (Aqua-Poly/Mount; Polysciences Inc., Eppelheim, Germany) under SuperFrost slides (VWR International). Prior to the analysis of the samples under a light microscope, mounting medium was dried for 24 hours at room temperature.
To provide direct evidence for 4-OH-tamoxifen-induced apoptosis in MEF5/N9 clones expressing Caspase-8 or -9 fusion proteins, an in situ application of the TUNEL assay was performed. This method detects DNA fragmentation, one of the late events that result from apoptotic signaling cascades. […]

HeLa cells = assay: Transient cotransfection with β-galactosidase reporter into HeLa cells; assay type: cell-based, human; conditions: 10^−8 M 4-OH-tamoxifen, Cre-ER(T2) as reference, range given jointly for HeLa and Pac2
Experimental: as §1
Transient transfections into M5/N9 and HeLa cells were performed with FuGene transfection reagent (Roche) following the manufacturer's instructions. Briefly, semiconfluent cultures in a 24-well plate were transfected in triplicate with 112 ng of the β-galactosidase expression vector CMVβ(Invitrogen) and the same amount of pCAG-Cre-ER(T2), pCAG-Casp8-ER(T2) or pCAG-Casp9-ER(T2) plasmid DNA. After 12 h 4-OH-tamoxifen was added at a concentration of 10^−8 M and the cultures were lysed at 48 h. Cell lysis and the measurement of β-galactosidase activity by chemiluminescence were performed with the β-galactosidase reporter gene assay (Roche) using a Centro LB960 plate luminometer (Berthold). […]

Molecule | reduction of β-Galactosidase activity in presence of 4-OHT (Pac2 cells) | TUNEL result / apoptotic morphology (in words) (MEF5/N9 cells) | incubation time with 4-OH-tamoxifen at which TUNEL positive cells were detected (MEF5/N9 cells) | reduction of β-Galactosidase activity in presence of 4-OHT (HeLa cells)
B1 | 95-99% | typical apoptotic morphology | 3 h | 95-99%
B2 |  | typical apoptotic morphology | 7 h | 
B3 |  | TUNEL negative at any point in time |  | 
